Substitutions are numbered along the chain they refer to.
T1: Biotinylated CD96 antigen (human, UniProt P40200-2 22-503, limits assumed, biotinylated)
T1 sequence (looked up): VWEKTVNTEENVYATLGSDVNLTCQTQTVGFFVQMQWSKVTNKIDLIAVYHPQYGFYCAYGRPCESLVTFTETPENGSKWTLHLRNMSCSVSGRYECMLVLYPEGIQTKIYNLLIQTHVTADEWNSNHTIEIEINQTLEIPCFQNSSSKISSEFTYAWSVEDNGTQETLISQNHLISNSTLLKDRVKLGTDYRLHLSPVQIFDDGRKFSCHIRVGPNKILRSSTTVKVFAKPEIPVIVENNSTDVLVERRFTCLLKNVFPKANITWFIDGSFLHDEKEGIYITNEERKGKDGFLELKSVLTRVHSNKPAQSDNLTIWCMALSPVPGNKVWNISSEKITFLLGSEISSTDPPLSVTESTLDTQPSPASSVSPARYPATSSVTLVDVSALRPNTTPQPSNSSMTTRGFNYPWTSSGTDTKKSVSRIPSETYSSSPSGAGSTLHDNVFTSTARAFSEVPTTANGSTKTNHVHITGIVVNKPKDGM

T2: CD96 epitope peptide #4 (62-81) (human)
T2 peptide: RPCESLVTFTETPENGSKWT

T3: CD96 epitope peptide #10 (149-170) (human)
T3 peptide: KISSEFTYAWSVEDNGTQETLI

T4: CD96 epitope peptide #19 (280-299) (human)
T4 peptide: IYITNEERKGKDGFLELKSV

T5: CD96 epitope peptide #9 (137-156) (human)
T5 peptide: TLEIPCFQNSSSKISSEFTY

T6: CD96 epitope peptide #21 (310-329) (human)
T6 peptide: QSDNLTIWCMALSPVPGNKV

T7: CD96 epitope peptide #18 (265-284) (human)
T7 peptide: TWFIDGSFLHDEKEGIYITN

B1: h1722-010 (antibody, V domains shown)
VH: EVQLVQSGAEVKKPGSSVKVSCKASGGTFSDYWMHWVRQAPGQGLEWIGMLHPNSGTTSFNEKFKIRVTITADKSTSTAYMELSSLRSEDTAVYYCASDYSGPFAYWGQGTLVTVSS
VL: DIQLTQSPSSLSASVGDRVTITCSASSSVNYIHWYQQKPGKAPKRWIFDTSKLASGVPSRFSGSGSGTDYTLTISSLQPEDFATYYCQQWRSNPLTFGQGTKLEIK
notes: Only variable regions are tied to this name; also called M722-010
B2: h1719-014 (antibody, V domains shown)
VH: EVTLKESGPVLVKPTETLTLTCTVSGFSLSSYGVSWVRQPPGKGLEWLGVIWGDGNTNYHSVLISRLTISKDTSKSQVVLTLTNMDPVDTATYYCAKNYYYGSRYGYPLDYWGQGTTVTVSS
VL: DIQMTQSPSSVSASVGDRVTITCKATQDVGTAVAWYQQKPGKSPKLLIYWASTRHTGVPERFSGSGSGTDFTLTISSLQPEDFATYFCQQYGSSVLTFGGGTKVEIK
notes: Only variable regions are tied to this name; also called M719-014
B3: ch1720 (antibody, human IgG4 S228P, kappa, V domains shown)
VH: EFQLQQSGPELVKPGASVKISCKASAYSLTDYNMNWVKQSNGKSLEWIGVINPSYGISSYNQKFKGKATLTVDQSSSTAYMHLNSLTSEDSAVYYCARQLRLPGYFDVWGTGTTVTVSS
VL: DIKMTQSPSSKNASLGERVTITCKASQDINSYLNWFQQKPGKSPKTLIYRASRLVDGVPSRFSGSGSGQDYSLTISSLEYEDMGIYYCLKYDEFPYTFGGGTKLEIKR
notes: also called chimeric antibody corresponding to m1720
B4: h1718-012 (antibody, V domains shown)
VH: EVQLVQSGAEVKKPGASVKVSCKASGYTITDYNMNWVRQAPGQRLEWIGVINPSYGITDYNQNFKDRVTITVDTSASTAYMELSSLRSEDTAVYYCAIQLRLPGYFDVWGQGTTVTVSS
VL: DIQMTQSPSSLSASVGDRVTITCKASQDINQYLNWFQQKPGKAPKTLIYRANRLVDGVPSRFSGSGSGQDYTLTISSLQPEDFATYYCLKYDEFPYTFGGGTKVEIK
notes: Only variable regions are tied to this name
B5: h1721-003 (antibody, V domains shown)
VH: B2 VH with S35N, V37I, G44A, N56S, V62A, Y100F, P108A, L109M, Y111S
VL: DIQMTQSPSSLSASVGDRVTITCRASENIYSSLAWYQQKPGKAPKLLIYNAKTLIEGVPSRFSGSGSGTDFTLTISSLQPEDFATYYCQHHYGTPYTFGGGTKVEIK
notes: Only variable regions are tied to this name; also called M721-003
B6: ch1719 (antibody, human IgG4 S228P, kappa, V domains shown)
VH: QVQLKESGPGLVAPSQSLSITCTVSGFSLISYGVSWVRQPPGKGLEWLGVIWGDGNTNYHSVLISRLSIRKDDSKSQVFLKLNSLQTDDTATYYCAKNNYYGSRYGYPMDYWGQGTSVTVSS
VL: DIVMTQSHKFMSTSVGDRVSITCKATQDVGTAVAWYQQKPGHSPKLLIYWASTRHTGVPERFTGSGSGTDFTLTIDNVQSEDLADYFCQQYGSSVLTFGAGTKVELRR
notes: also called chimeric antibody corresponding to m1719
B7: ch1721 (antibody, human IgG4 S228P, kappa, V domains shown)
VH: B6 VH with S35N, N56S, V62A, R70S, K81N, N99Y, Y100F, P108A, Y111S, T116I
VL: DIQMTQSPASLSAAVGETVTITCRASENIYSSLAWYQQKQGKSPQLLVYNAKTLIETVASRFSGSGSGTQYSLKINSLQPEDFGSFYCQHHYGTPYTFGGGTKLEIKR
notes: also called chimeric antibody corresponding to m1721
B8: h1719-010 (antibody, V domains shown)
VH: B2 VH with N98Q, Y99N, L109I
VL: B2 VL with S43A, E60S, F87Y
notes: as for B4

target: T1, Biotinylated CD96 antigen; assay: competition ELISA, antibody B premixed with biotinylated CD96; competitor (coated antibody A): h1718-012
Protocol: (§1) Competitive assays of different antibodies binding to CD96 protein were used to classify binding epitopes of the antibodies. The specific experimental methods are as follows:
(§2) Antibody A was diluted to a concentration of 2 μg/ml with PBS buffer (Shanghai Yuanpei Biotechnology Co., Ltd. Cat No. B320), pH 7.4, added to a 96-well microtiter plate (Corning, Cat No. CLS3590-100EA) at a volume of 50 μl/well, and coated at 4° C. overnight. After discarding the liquid, 250 μl/well of 5% skim milk (BD skim milk, Cat No. 232100) blocking solution diluted with PBS was added, and the plate was incubated at 37° C. for 3 hours. After blocking, the blocking solution was discarded, and the plate was washed 5 times with PBST buffer (pH 7.4 PBS containing 0.05% tween-20) and stored for later use. Antibody B was diluted to 40 μg/ml and 8 μg/ml with 1% BSA, and Biotinylated CD96 antigen was simultaneously diluted to 4 μg/mL. Subsequently, antibody B and antigen were mixed in a 1:1 volume ratio, pre-incubated at 37° C. for 45 minutes, added into the enzyme plate coated with antibody A, thus incubating the plate in an incubator at 37° C. for 1.5 hours. After incubation, the plate was washed for 5 times with PBST, and 50 μl/well of HRP-labeled streptavidin (Sigma, Cat No. 52438) diluted with sample dilution was added, followed by incubating the plate at 37° C. for 1 hour. After washing the plate 5 times with PBST, 50 μl/well of TMB chromogenic substrate (KPL, Cat No. 52-00-03) was added for color development, followed by adding 50 μl/well of 1M H₂SO₄ to stop the reaction. The absorption value was read at 450 nm with a NOVOStar microplate reader, and the OD value was used to determine whether A and B CD96 antibodies compete with each other. Antibodies that compete with each other fall into the same class of antibodies, otherwise belong to different classes of antibodies (see FIG. 3 and Table 18).

competition (percent)	Binder
-3.5%	B1
44.3%	B2
94.4%	B3
100%	B4
73.6%	B5

Target: T2, CD96 epitope peptide #4 (62-81)
Assay: peptide ELISA ('-' indicates no binding, table note)
Protocol: (§3) The epitopes recognized by anti-CD96 antibody were detected by the assay of binding the antibody to different polypeptide fragments of CD96 protein. The fragments of different polypeptides of the CD96 antigen were coated on the microtiter plate. The signal density after the antibody was added was used to judge the binding activity of the antibody and the polypeptide. The specific experimental method is as follows:
(§4) The polypeptides were diluted to a concentration of 20 μg/ml with PBS buffer (Shanghai Yuanpei Biotechnology Co., Ltd. Cat No. B320), pH 7.4, added to a 96-well microtiter plate (Corning, Cat No. CLS3590-100EA) at a volume of 50 μl/well, and coated at 4° C. overnight. After discarding the liquid, 250 μl/well of 5% skim milk (BD skim milk, Cat No. 232100) blocking solution diluted with PBS was added, and the plate was incubated in an incubator at 37° C. for 3 hours. After blocking, the blocking solution was discarded, and the plate was washed 5 times with PBST buffer (pH 7.4 PBS containing 0.05% tween-20). 50 μl/well of different concentrations of the antibodies to be tested (hybridoma purification antibody or humanized antibody) diluted with sample dilution was added, and the plate was incubated in an incubator at 37° C. for 2 hours. […] After washing the plate 5 times with PBST, 50 μl/well of TMB chromogenic substrate (KPL, Cat No. 52-00-03) was added, the plate was incubated at room temperature for 5-15 min, followed by adding 50 μl/well of 1M H₂SO₄ to stop the reaction. The absorption value was read at 450 nm with a microplate reader (Thermo Scientific MuLtiskan MK3), and the epitopes that CD96 antibody can recognize were analyzed.

binding result	Binder
no binding	B6
no binding	B7
no binding	B3

Target: T3, CD96 epitope peptide #10 (149-170)
Assay: as above
Protocol: as §3, §4

binding result	Binder
no binding	B6
no binding	B7
no binding	B3

Target: T4, CD96 epitope peptide #19 (280-299)
Assay: as above
Protocol: as §3, §4

binding result	Binder
no binding	B6
no binding	B7
no binding	B3

Target: T5, CD96 epitope peptide #9 (137-156)
Assay: as above
Protocol: as §3, §4

binding result	Binder
no binding	B6
no binding	B7
no binding	B3

Target: T6, CD96 epitope peptide #21 (310-329)
Assay: as above
Protocol: as §3, §4

binding result	Binder
no binding	B6
no binding	B7
no binding	B3

Target: T7, CD96 epitope peptide #18 (265-284)
Assay: as above
Protocol: as §3, §4

binding result	Binder
no binding	B6
no binding	B7
no binding	B3

target: T1, Biotinylated CD96 antigen; assay: competition ELISA, antibody B premixed with biotinylated CD96; competitor (coated antibody A): h1722-010
Protocol: as §1, §2

competition (percent)	Binder
100%	B1
28.6%	B2
-2.4%	B3
-11.1%	B4
-0.3%	B5

target: T1, Biotinylated CD96 antigen; assay: competition ELISA: antibody B pre-incubated with biotinylated CD96 antigen, added to a plate coated with antibody A, HRP-streptavidin, OD450; competitor: coated h1721-003
Protocol: as §1, §2

IC50 (read off the curve)	Binder
~0.4 nM	B8
~0.4 nM	B4
~0.4 nM	B5
